{"source": "patent US20180105832A1", "about": "(FRAUNHOFER GESELLSCHAFT ZUR FOERDERUNG DER ANGEWANDTEN …, published 2018)", "binders": {"B1": {"name": "Aspergillus-specific monoclonal antibody AP10 (mAbAP10) (antibody, V domains shown)", "VH": "DVQLVESGGGLVQPGGSRKLSCAASGFTFSSFGMHWVRQAPEKGLEWVAYINGGSGTIYYADTVKGRFTISRDNPRNTLFLQMETTSLRSEDTAMYYCARGGDDPFAYWGQGTLVTV", "VL": "IQMTQSPSSLSAYLGDKVTITCMASQDINNHIAWYQLKPGKGPRLLIHYTSTLHPGIPSRFSGSGSGRDYSFSISDLEPEDIATYYCLQYDNLRTFGGGTKLEIK", "notes": "also called CSP-specific mAbAP10"}}, "target": "T1, Pepscan peptide 3 of CSP (amino acids 25-37) (Aspergillus flavus)", "T1 peptide": "YDDPDCDPGFTCR", "assay": "Pepscan-ELISA"}
{"binder": "B1", "values": [{"measurement": "binding efficiency relative to peptide 4", "value": 2, "unit": "fold"}]}
